Measured values: US20210171638A1 (HISUN BIORAY PHARMACEUTICAL, published 2021)

Experiments:
[1] = target: T1, Monkey PD-L1 (R&D) (monkey); test: ELISA, monkey PD-L1 coated at 5 µg/ml, anti-human Fc-HRP, OD600
T1 construct: Bought recombinant protein coated on ELISA plates; construct and monkey species not described; also called monkey PD-L1 protein
Protocol: (§1) In this Example, ELISA assay was used to determine binding of the candidate antibody to human, monkey, and mouse PD-L1.
(§2) After incubation overnight at 4° C., the coating solution was discarded the next day and washed with PBST. 200 μl of BSA blocking solution was added into each well and incubated for 1 h at room temperature. […] Then 100 μl of antibody was added into each well and incubated for 2 h at room temperature. Washing was performed three times with PBST, and anti-human Fc-HRP antibody (Sino Biological) was added and incubated for 1 h at room temperature. Finally, each well was washed four times with PBST, TMB color developing solution (Beijing Tiangen BioTech) was added, and the color was developed at room temperature. After the color development was stopped, the OD value was determined with a microplate reader at 600 nm.

[2] = target: T2, hPD-L1-Fc protein (R&D) (human, UniProt Q9NZQ7 19-239); test: blocking ELISA: hPD-L1-Fc coated at 1 µg/mL, B11 dilutions mixed 1:1 with CD80-Biotin (0.25 µg/mL), avidin-HRP, OD450
T2 construct: construct not described; not shown: Fc part
T2 sequence (Q9NZQ7 19-239 limits assumed): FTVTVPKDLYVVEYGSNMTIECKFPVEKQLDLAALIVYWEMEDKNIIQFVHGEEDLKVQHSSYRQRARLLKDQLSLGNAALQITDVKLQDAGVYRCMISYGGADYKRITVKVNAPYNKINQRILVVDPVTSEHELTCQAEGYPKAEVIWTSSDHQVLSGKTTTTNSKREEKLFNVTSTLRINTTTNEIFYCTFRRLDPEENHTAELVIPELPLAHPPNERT

[3] = target: T3, Human PD-L1 (R&D) (human, UniProt Q9NZQ7 19-239, limits assumed); test: ELISA, human PD-L1 coated at 5 µg/ml, anti-human Fc-HRP, OD600
T3 construct: Bought recombinant protein coated on ELISA plates; construct not described; also called human PD-L1 protein
T3 sequence (Q9NZQ7 19-239 limits assumed): as above
Protocol: as §1, §2

[4] = target: T2, hPD-L1-Fc protein (R&D); test: blocking ELISA: hPD-L1-Fc coated at 1 µg/mL, B11 dilutions mixed 1:1 with hPD-1-Fc-Biotin (0.25 µg/mL), avidin-HRP, OD450
[5] = target: T4, Mouse PD-L1 (R&D) (mouse, UniProt Q9EP73 19-238, limits assumed); test: ELISA, mouse PD-L1 coated at 5 µg/ml, anti-human Fc-HRP, OD600
T4 construct: Bought recombinant protein coated on ELISA plates; construct not described; also called mouse PD-L1 protein
T4 sequence (Q9EP73 19-238 limits assumed): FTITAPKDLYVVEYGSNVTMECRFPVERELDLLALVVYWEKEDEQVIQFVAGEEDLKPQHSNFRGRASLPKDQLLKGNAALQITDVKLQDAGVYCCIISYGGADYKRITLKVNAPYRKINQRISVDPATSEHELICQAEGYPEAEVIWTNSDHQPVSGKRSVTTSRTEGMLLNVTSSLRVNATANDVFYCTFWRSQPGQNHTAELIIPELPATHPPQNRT
Protocol: as §1, §2

[6] = target: T5, Recombinant His-tagged PD-L1 (Homo sapiens (Human), UniProt Q9NZQ7 19-238); test: BIAcore SPR, antibody captured by anti-human IgG on CM5 chip, His-tagged PD-L1 as analyte, 1:1 fit
T5 construct: also called target antigen
T5 sequence (Q9NZQ7 19-238 limits assumed): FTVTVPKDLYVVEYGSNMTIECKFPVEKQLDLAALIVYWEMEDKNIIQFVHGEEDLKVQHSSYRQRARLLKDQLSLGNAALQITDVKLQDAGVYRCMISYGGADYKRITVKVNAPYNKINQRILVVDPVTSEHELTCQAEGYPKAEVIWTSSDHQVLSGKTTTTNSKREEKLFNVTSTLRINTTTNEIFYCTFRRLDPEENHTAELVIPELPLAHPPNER
Protocol: In this Example, BIAcore is used to determine antibody affinity. In this experiment, the human antibody capture kit (GE, BR100839) was used to couple the anti-human IgG antibody to the S series CM5 sensor chip (GE, BR100530) through amino before the ligand and analyte binding. Recombinant anti-PD-L1 antibodies, B10, B11, and H12 were diluted with HBS-EP+Buffer as ligands. The recombinant His-tagged PD-L1 was diluted with HBS-EP+Buffer to 8 μg/ml, 4 μg/ml, 1.6 μg/ml, 0.64 μg/ml, 0.256 μg/ml and 0.102 μg/ml as analytes. In Biacore Wizard mode, affinity analysis experiments were performed in a multi-cycle manner. The test of each sample included 3 Start up, 1 zero concentration control, 6 gradient concentration samples and 1 repeated concentration sample. After each cycle, 10 mM Glycine HCl PH2.1 regeneration solution is used to regenerate the chip. Each concentration cycle of the analyte was set as follows: capture time 180s, ligand solution flow rate 10 μl/min, ligand and analyte binding time 180 s, analyte solution flow rate 30 μl/min; dissociation time 2400 s. Raw data was introduced into the analysis software, the zero concentration control was subtracted, and the reference channel was subtracted to eliminate the volume effect. The 1:1 binding mode in the Kinetics analysis method was used to fit the graph and the affinity data of the antigen antibody was calculated by regression analysis using the analysis software based on the binding curve.

| EC50 [1] | IC50 (read off the curve) [2] | EC50 [3] | IC50 (read off the curve) [4] | EC50 [5] | Kd [6] | koff [6] | kon [6] | Binder |
| --- | --- | --- | --- | --- | --- | --- | --- | --- |
| 0.495 pM | ~0.2 µg/mL | 1.03 pM | ~0.3 µg/mL | 0.407 pM | 629 pM | 0.000857 s⁻¹ | 1.36e+06 M⁻¹ s⁻¹ | Anti-PD-L1 Antibody B11 (antibody, V domains shown, also called HZPDL1-B11) VH: EVQLVESGGGLVQPGGSLRLSCAASGFTFSETWLHWVRQAPGKGLEWVAWVSPFGGSTYYADSVKGRFTISADTSKNTAYLQMNSLRAEDTAVYYCARRHWPGGFDYWGQGTLVTVSS VL: not shown |
| 2.65 pM |  | 1.97 pM |  | 0.906 pM | 1640 pM | 0.00236 s⁻¹ | 1.44e+06 M⁻¹ s⁻¹ | Anti-PD-L1 Antibody B10 (antibody, V domains shown, also called HZPDL1-B10) VH: not shown VL: DIQMTQSPSSLSASVGDRVTITCRASQDVSTAVAWYQQKPGKAPKLLIYSASFLYSGVPSRFSGSGSGTDFTLTISSLQPEDFATYYCQQFIFHPATFGQGTKVEIKR |
| 0.551 pM |  | 1.4 pM |  | 0.483 pM | 2190 pM | 0.00261 s⁻¹ | 1.19e+06 M⁻¹ s⁻¹ | Anti-PD-L1 Antibody H12 (antibody, V domains shown, also called HZPDL1-H12) VH: EVQLVESGGGLVQPGGSLRLSCAASGFTFSESWLHWVRQAPGKGLEWVAWVTPYGGSTYYADSVKGRFTISADTSKNTAYLQMNSLRAEDTAVYYCARRHWPGGFDYWGQGTLVTVSS VL: not shown |
